What follows are sequences tested against FGFR3 (UniProt P22607) (assay: phosphorylation enrichment, bacterial display (enrichment ratio); higher = better substrate or ligand; peptides without Tyr show the background).
Chain of FGFR3 (P22607 whole entry, looked up): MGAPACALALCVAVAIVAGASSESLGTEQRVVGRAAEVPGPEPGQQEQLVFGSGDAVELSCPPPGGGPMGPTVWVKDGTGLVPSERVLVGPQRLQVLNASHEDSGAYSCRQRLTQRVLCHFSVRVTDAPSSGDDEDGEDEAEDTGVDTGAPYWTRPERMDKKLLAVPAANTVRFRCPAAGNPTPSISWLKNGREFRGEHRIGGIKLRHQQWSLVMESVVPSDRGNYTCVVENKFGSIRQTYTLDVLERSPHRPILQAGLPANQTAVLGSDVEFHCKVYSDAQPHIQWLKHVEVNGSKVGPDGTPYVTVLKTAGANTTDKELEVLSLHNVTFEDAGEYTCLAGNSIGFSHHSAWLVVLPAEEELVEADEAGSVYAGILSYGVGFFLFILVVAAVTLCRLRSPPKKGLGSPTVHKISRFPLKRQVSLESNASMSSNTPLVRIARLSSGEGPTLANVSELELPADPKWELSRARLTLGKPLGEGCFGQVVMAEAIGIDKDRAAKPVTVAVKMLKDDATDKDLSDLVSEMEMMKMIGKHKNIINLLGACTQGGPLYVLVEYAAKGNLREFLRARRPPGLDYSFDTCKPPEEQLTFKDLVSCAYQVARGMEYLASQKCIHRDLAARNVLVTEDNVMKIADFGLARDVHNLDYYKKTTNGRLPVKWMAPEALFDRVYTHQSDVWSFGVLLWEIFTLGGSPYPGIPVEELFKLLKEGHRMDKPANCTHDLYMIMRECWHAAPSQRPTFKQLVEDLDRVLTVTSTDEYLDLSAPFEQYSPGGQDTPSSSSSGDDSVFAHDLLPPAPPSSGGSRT
In the case of VRRVGYVSGWG [HP_Y280_G276R], the phosphorylation enrichment is reported as 0.391.
QSAGQYSSQGL [TNNI3K_Y788] gave a phosphorylation enrichment of 0.542.
In the case of MKTISYETLIA [DOCK10_Y1350], the phosphorylation enrichment is reported as 0.622.
For SVVVHYEPPEV [TP53_Y220_P219H], the phosphorylation enrichment was 0.647.
For ERPGVYTNVVE [F11_Y608], the phosphorylation enrichment was 0.538.
For ATLDVYNPFET [SCAMP3_Y41], the phosphorylation enrichment was 0.652.
HLATEYVFSDF [PANX1_Y10_Q5H] was tested, and the phosphorylation enrichment was 1.23.
DTCPPYVLSQG [GJB4_Y237] was tested, and the phosphorylation enrichment was 0.77.
In the case of GILDVYIFLGP [GAA_Y340], the phosphorylation enrichment is reported as 1.02.
For RRERDYTNLPS [CSF1R_Y923], the phosphorylation enrichment was 0.541.
For NREGVYTDFAP [TGFBI_Y537_V539D], the phosphorylation enrichment was 0.608.
VEDPEYAVTQL [STOML2_Y124] was tested, and the phosphorylation enrichment was 0.516.
GSTLSYFGLAT [P2RX7_Y343_A348T] was tested, and the phosphorylation enrichment was 1.36.
In the case of QQLVAYFSKHT [SRC_Y232_A237T_YF], the phosphorylation enrichment is reported as 0.942.
Sequence IKEFKYGIEEH [GJA1_Y137_K134E] has a phosphorylation enrichment of 0.684.
Work on GRLPEYNTRIA [CCDC151_Y542] yielded a phosphorylation enrichment of 0.543.
In the case of KASGKYYAMKI [AKT3_Y173], the phosphorylation enrichment is reported as 0.536.
KLNNEYLELNF [MME_Y497_YF] was tested, and the phosphorylation enrichment was 3.38.
Sequence KLLRLYAVVTR [LYN_Y306_V303L] has a phosphorylation enrichment of 0.644.
With GDYYRSLAEVA [YWHAG_Y133_Y133S] the phosphorylation enrichment was 3.26.
With SPPILYSFYLN [FCRL6_Y239_D244N] the phosphorylation enrichment was 0.882.
With CLAKMYYSAVD [CP_Y539] the phosphorylation enrichment was 0.936.
SHGQDYLVGNK [GSTA1_Y147] showed a phosphorylation enrichment of 0.419.
ETKKQYDSFTY [TMED3_Y85] was tested, and the phosphorylation enrichment was 0.581.
Work on DWWQEYVLNES [TGM1_Y267_R264W] yielded a phosphorylation enrichment of 0.97.
SSMIDYNLLEK [MYOC_Y479_P481L] was tested, and the phosphorylation enrichment was 0.698.
NACGLYYKLHN [GATA2_Y376] gave a phosphorylation enrichment of 1.48.
Work on RLLRGYDQSAY [HLA-C_Y137] yielded a phosphorylation enrichment of 0.593.
Sequence LHAALYKRKLL [TTLL5_Y542_E543K] has a phosphorylation enrichment of 0.518.
For WHHTFYNEPRV [ACTA1_Y93_L96P], the phosphorylation enrichment was 0.561.
In the case of VDTRAYFTSAT [MT-CO1_Y304], the phosphorylation enrichment is reported as 0.459.
FSSLGYPLPEG [ZSWIM4_Y87_P89L_YF] was tested, and the phosphorylation enrichment was 0.472.
For SEASFYKSLNL [NGEF_Y289_YF], the phosphorylation enrichment was 0.692.

Each sequence was assayed against Hck (UniProt P08631) in the same assay as above.
Chain of Hck (P08631 whole entry, looked up): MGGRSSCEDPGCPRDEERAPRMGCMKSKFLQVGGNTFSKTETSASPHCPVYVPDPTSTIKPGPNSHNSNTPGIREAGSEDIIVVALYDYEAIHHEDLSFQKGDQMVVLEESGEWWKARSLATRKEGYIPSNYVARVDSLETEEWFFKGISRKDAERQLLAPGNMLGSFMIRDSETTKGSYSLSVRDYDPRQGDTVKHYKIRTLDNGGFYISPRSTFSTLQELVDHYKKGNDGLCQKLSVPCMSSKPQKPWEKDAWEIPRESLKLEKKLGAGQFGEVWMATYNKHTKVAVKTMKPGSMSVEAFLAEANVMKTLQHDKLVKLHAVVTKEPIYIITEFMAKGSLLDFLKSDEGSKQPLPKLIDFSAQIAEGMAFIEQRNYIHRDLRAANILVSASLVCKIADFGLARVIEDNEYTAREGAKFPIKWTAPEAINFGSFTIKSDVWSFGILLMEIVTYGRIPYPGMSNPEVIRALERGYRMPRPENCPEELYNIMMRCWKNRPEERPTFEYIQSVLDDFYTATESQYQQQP
Sequence VRRVGYVSGWG [HP_Y280_G276R] has a phosphorylation enrichment of 0.438.
In the case of QSAGQYSSQGL [TNNI3K_Y788], the phosphorylation enrichment is reported as 0.855.
MKTISYETLIA [DOCK10_Y1350] gave a phosphorylation enrichment of 0.501.
SVVVHYEPPEV [TP53_Y220_P219H] showed a phosphorylation enrichment of 0.537.
In the case of ERPGVYTNVVE [F11_Y608], the phosphorylation enrichment is reported as 0.463.
Sequence ATLDVYNPFET [SCAMP3_Y41] has a phosphorylation enrichment of 2.15.
HLATEYVFSDF [PANX1_Y10_Q5H] showed a phosphorylation enrichment of 0.661.
For DTCPPYVLSQG [GJB4_Y237], the phosphorylation enrichment was 0.507.
GILDVYIFLGP [GAA_Y340] showed a phosphorylation enrichment of 0.676.
With RRERDYTNLPS [CSF1R_Y923] the phosphorylation enrichment was 0.62.
With NREGVYTDFAP [TGFBI_Y537_V539D] the phosphorylation enrichment was 2.95.
Sequence VEDPEYAVTQL [STOML2_Y124] has a phosphorylation enrichment of 0.463.
GSTLSYFGLAT [P2RX7_Y343_A348T] was tested, and the phosphorylation enrichment was 0.687.
Work on QQLVAYFSKHT [SRC_Y232_A237T_YF] yielded a phosphorylation enrichment of 0.699.
For IKEFKYGIEEH [GJA1_Y137_K134E], the phosphorylation enrichment was 0.42.
With GRLPEYNTRIA [CCDC151_Y542] the phosphorylation enrichment was 0.416.
For KASGKYYAMKI [AKT3_Y173], the phosphorylation enrichment was 0.529.
KLNNEYLELNF [MME_Y497_YF] showed a phosphorylation enrichment of 1.06.
KLLRLYAVVTR [LYN_Y306_V303L] showed a phosphorylation enrichment of 0.468.
GDYYRSLAEVA [YWHAG_Y133_Y133S] showed a phosphorylation enrichment of 1.36.
For SPPILYSFYLN [FCRL6_Y239_D244N], the phosphorylation enrichment was 2.06.
CLAKMYYSAVD [CP_Y539] showed a phosphorylation enrichment of 0.708.
Sequence SHGQDYLVGNK [GSTA1_Y147] has a phosphorylation enrichment of 0.412.
In the case of ETKKQYDSFTY [TMED3_Y85], the phosphorylation enrichment is reported as 0.54.
DWWQEYVLNES [TGM1_Y267_R264W] showed a phosphorylation enrichment of 0.515.
In the case of SSMIDYNLLEK [MYOC_Y479_P481L], the phosphorylation enrichment is reported as 0.518.
NACGLYYKLHN [GATA2_Y376] was tested, and the phosphorylation enrichment was 1.21.
For RLLRGYDQSAY [HLA-C_Y137], the phosphorylation enrichment was 0.527.
LHAALYKRKLL [TTLL5_Y542_E543K] showed a phosphorylation enrichment of 0.536.
WHHTFYNEPRV [ACTA1_Y93_L96P] gave a phosphorylation enrichment of 0.552.
With VDTRAYFTSAT [MT-CO1_Y304] the phosphorylation enrichment was 0.479.
For FSSLGYPLPEG [ZSWIM4_Y87_P89L_YF], the phosphorylation enrichment was 0.525.
In the case of SEASFYKSLNL [NGEF_Y289_YF], the phosphorylation enrichment is reported as 0.488.

Each sequence was assayed on Fer (mouse) in the same assay as above.
Work on VRRVGYVSGWG [HP_Y280_G276R] yielded a phosphorylation enrichment of 0.469.
Work on QSAGQYSSQGL [TNNI3K_Y788] yielded a phosphorylation enrichment of 0.622.
With MKTISYETLIA [DOCK10_Y1350] the phosphorylation enrichment was 0.497.
SVVVHYEPPEV [TP53_Y220_P219H] showed a phosphorylation enrichment of 1.86.
With ERPGVYTNVVE [F11_Y608] the phosphorylation enrichment was 0.413.
Sequence ATLDVYNPFET [SCAMP3_Y41] has a phosphorylation enrichment of 0.581.
In the case of HLATEYVFSDF [PANX1_Y10_Q5H], the phosphorylation enrichment is reported as 0.788.
DTCPPYVLSQG [GJB4_Y237] was tested, and the phosphorylation enrichment was 0.671.
For GILDVYIFLGP [GAA_Y340], the phosphorylation enrichment was 0.381.
In the case of RRERDYTNLPS [CSF1R_Y923], the phosphorylation enrichment is reported as 0.474.
NREGVYTDFAP [TGFBI_Y537_V539D] gave a phosphorylation enrichment of 2.51.
VEDPEYAVTQL [STOML2_Y124] gave a phosphorylation enrichment of 0.709.
Sequence GSTLSYFGLAT [P2RX7_Y343_A348T] has a phosphorylation enrichment of 0.545.
QQLVAYFSKHT [SRC_Y232_A237T_YF] gave a phosphorylation enrichment of 0.595.
Work on IKEFKYGIEEH [GJA1_Y137_K134E] yielded a phosphorylation enrichment of 0.402.
Work on GRLPEYNTRIA [CCDC151_Y542] yielded a phosphorylation enrichment of 0.339.
With KASGKYYAMKI [AKT3_Y173] the phosphorylation enrichment was 0.335.
Work on KLNNEYLELNF [MME_Y497_YF] yielded a phosphorylation enrichment of 0.552.
Sequence KLLRLYAVVTR [LYN_Y306_V303L] has a phosphorylation enrichment of 0.51.
For GDYYRSLAEVA [YWHAG_Y133_Y133S], the phosphorylation enrichment was 0.419.
In the case of SPPILYSFYLN [FCRL6_Y239_D244N], the phosphorylation enrichment is reported as 3.7.
CLAKMYYSAVD [CP_Y539] gave a phosphorylation enrichment of 1.18.
In the case of SHGQDYLVGNK [GSTA1_Y147], the phosphorylation enrichment is reported as 0.449.
ETKKQYDSFTY [TMED3_Y85] gave a phosphorylation enrichment of 0.542.
DWWQEYVLNES [TGM1_Y267_R264W] showed a phosphorylation enrichment of 0.678.
Work on SSMIDYNLLEK [MYOC_Y479_P481L] yielded a phosphorylation enrichment of 0.417.
Work on NACGLYYKLHN [GATA2_Y376] yielded a phosphorylation enrichment of 0.56.
RLLRGYDQSAY [HLA-C_Y137] was tested, and the phosphorylation enrichment was 0.52.
LHAALYKRKLL [TTLL5_Y542_E543K] gave a phosphorylation enrichment of 0.41.
WHHTFYNEPRV [ACTA1_Y93_L96P] gave a phosphorylation enrichment of 0.582.
VDTRAYFTSAT [MT-CO1_Y304] showed a phosphorylation enrichment of 0.256.
FSSLGYPLPEG [ZSWIM4_Y87_P89L_YF] gave a phosphorylation enrichment of 0.394.
SEASFYKSLNL [NGEF_Y289_YF] showed a phosphorylation enrichment of 0.57.

These sequences were tested against MERTK (UniProt Q12866) in the same assay as above.
Chain of MERTK (Q12866 whole entry, looked up): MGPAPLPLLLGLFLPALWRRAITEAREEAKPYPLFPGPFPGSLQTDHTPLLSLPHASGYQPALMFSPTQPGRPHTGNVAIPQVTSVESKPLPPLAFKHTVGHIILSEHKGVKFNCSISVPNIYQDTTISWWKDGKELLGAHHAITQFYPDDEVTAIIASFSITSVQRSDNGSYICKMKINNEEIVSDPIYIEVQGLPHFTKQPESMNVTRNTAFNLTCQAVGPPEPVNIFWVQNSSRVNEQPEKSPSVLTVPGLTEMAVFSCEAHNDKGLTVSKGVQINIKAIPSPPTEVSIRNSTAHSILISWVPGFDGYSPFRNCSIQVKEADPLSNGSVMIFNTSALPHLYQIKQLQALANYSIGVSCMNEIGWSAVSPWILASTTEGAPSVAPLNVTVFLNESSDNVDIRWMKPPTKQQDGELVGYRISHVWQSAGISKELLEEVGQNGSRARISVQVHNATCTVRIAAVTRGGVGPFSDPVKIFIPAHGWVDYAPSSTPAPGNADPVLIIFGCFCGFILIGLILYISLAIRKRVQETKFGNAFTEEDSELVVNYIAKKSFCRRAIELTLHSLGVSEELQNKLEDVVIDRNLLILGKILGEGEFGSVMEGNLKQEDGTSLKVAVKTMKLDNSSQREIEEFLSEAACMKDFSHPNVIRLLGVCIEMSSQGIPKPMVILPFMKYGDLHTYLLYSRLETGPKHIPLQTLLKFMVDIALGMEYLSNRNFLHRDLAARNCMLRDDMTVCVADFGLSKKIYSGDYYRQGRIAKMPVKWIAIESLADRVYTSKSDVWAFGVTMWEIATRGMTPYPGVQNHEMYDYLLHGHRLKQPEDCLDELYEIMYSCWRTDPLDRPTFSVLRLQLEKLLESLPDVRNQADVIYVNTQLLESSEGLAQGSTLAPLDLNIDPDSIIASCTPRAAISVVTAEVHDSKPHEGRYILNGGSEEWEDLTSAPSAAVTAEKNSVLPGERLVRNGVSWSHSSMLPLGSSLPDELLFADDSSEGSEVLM
With VRRVGYVSGWG [HP_Y280_G276R] the phosphorylation enrichment was 0.387.
QSAGQYSSQGL [TNNI3K_Y788] was tested, and the phosphorylation enrichment was 0.584.
In the case of MKTISYETLIA [DOCK10_Y1350], the phosphorylation enrichment is reported as 0.384.
SVVVHYEPPEV [TP53_Y220_P219H] was tested, and the phosphorylation enrichment was 0.71.
ERPGVYTNVVE [F11_Y608] gave a phosphorylation enrichment of 0.383.
ATLDVYNPFET [SCAMP3_Y41] gave a phosphorylation enrichment of 0.556.
Sequence HLATEYVFSDF [PANX1_Y10_Q5H] has a phosphorylation enrichment of 0.639.
DTCPPYVLSQG [GJB4_Y237] gave a phosphorylation enrichment of 0.439.
GILDVYIFLGP [GAA_Y340] showed a phosphorylation enrichment of 0.701.
RRERDYTNLPS [CSF1R_Y923] was tested, and the phosphorylation enrichment was 0.558.
Sequence NREGVYTDFAP [TGFBI_Y537_V539D] has a phosphorylation enrichment of 1.71.
VEDPEYAVTQL [STOML2_Y124] gave a phosphorylation enrichment of 0.409.
In the case of GSTLSYFGLAT [P2RX7_Y343_A348T], the phosphorylation enrichment is reported as 0.637.
Sequence QQLVAYFSKHT [SRC_Y232_A237T_YF] has a phosphorylation enrichment of 0.382.
In the case of IKEFKYGIEEH [GJA1_Y137_K134E], the phosphorylation enrichment is reported as 0.342.
GRLPEYNTRIA [CCDC151_Y542] was tested, and the phosphorylation enrichment was 0.45.
Work on KASGKYYAMKI [AKT3_Y173] yielded a phosphorylation enrichment of 0.455.
KLNNEYLELNF [MME_Y497_YF] showed a phosphorylation enrichment of 0.503.
For KLLRLYAVVTR [LYN_Y306_V303L], the phosphorylation enrichment was 0.581.
In the case of GDYYRSLAEVA [YWHAG_Y133_Y133S], the phosphorylation enrichment is reported as 0.663.
In the case of SPPILYSFYLN [FCRL6_Y239_D244N], the phosphorylation enrichment is reported as 9.41.
CLAKMYYSAVD [CP_Y539] showed a phosphorylation enrichment of 2.33.
Work on SHGQDYLVGNK [GSTA1_Y147] yielded a phosphorylation enrichment of 0.363.
Sequence ETKKQYDSFTY [TMED3_Y85] has a phosphorylation enrichment of 0.524.
DWWQEYVLNES [TGM1_Y267_R264W] gave a phosphorylation enrichment of 0.403.
With SSMIDYNLLEK [MYOC_Y479_P481L] the phosphorylation enrichment was 0.434.
With NACGLYYKLHN [GATA2_Y376] the phosphorylation enrichment was 2.29.
RLLRGYDQSAY [HLA-C_Y137] gave a phosphorylation enrichment of 0.36.
Sequence LHAALYKRKLL [TTLL5_Y542_E543K] has a phosphorylation enrichment of 0.502.
Work on WHHTFYNEPRV [ACTA1_Y93_L96P] yielded a phosphorylation enrichment of 0.59.
VDTRAYFTSAT [MT-CO1_Y304] showed a phosphorylation enrichment of 0.366.
Work on FSSLGYPLPEG [ZSWIM4_Y87_P89L_YF] yielded a phosphorylation enrichment of 0.519.
Sequence SEASFYKSLNL [NGEF_Y289_YF] has a phosphorylation enrichment of 0.471.
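Further: 11-residue human phosphosite peptides and single-mutation variants displayed on the E. coli surface, counted by deep sequencing, each peptide's frequency after selection divided by its frequency in the unselected input library; frequency after pTyr selection over input frequency; kinase dosed for 20-30% of maximal phosphorylation in three min.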
